Results on five variants are retold here after IntAct's records for PubMed 18996118.

First the molecules themselves.
B1: Capsid protein (Pseudomonas phage Pf3), P03623 (parent)
chain: MQSVITDVTGQLTAVQADITTIGGAIIVLAAVVLGIRWIKAQFF
partner: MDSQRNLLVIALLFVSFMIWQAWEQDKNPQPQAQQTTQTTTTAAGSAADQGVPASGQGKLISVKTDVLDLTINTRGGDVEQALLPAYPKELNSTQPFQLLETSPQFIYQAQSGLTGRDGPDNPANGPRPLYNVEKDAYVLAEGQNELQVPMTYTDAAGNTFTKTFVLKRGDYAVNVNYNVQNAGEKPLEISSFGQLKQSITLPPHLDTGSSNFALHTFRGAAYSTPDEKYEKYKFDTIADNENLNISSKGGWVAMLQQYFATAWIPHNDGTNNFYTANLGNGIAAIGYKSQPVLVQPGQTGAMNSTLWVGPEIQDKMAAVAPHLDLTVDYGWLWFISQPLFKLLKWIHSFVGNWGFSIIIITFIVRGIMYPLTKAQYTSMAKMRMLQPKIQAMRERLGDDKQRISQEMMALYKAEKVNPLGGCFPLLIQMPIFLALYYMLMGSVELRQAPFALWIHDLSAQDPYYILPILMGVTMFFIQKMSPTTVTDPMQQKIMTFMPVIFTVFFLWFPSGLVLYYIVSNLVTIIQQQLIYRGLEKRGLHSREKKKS
B2: Membrane protein insertase YidC (Escherichia coli (strain K12)), P25714 (parent)
chain: B1 partner
partner: B1 chain

Variants of B1 are the subject of the first experiment. Conditions: with yidc_ecoli yidC.
As for MQSVITDVTGQLTAVQADITTIGGAIICLAAVVLGIRWIKAQFF [V28C], the “effect of a mutation on the interaction” value is “increasing interaction”.

The variants in a further experiment derive from B1. To be noted: with yidc_ecoli yidC, P25714.
MQSVITDVTGQLTAVQADITTIGGAICVLAAVVLGIRWIKAQFF [I27C]: the “effect of a mutation on the interaction” value is “increasing interaction”.

The variants in a further experiment derive from B2. Conditions: with capsd_bppf3 VIII.
For the variant MDSQRNLLVIALLFVSCMIWQAWEQDKNPQPQAQQTTQTTTTAAGSAADQGVPASGQGKLISVKTDVLDLTINTRGGDVEQALLPAYPKELNSTQPFQLLETSPQFIYQAQSGLTGRDGPDNPANGPRPLYNVEKDAYVLAEGQNELQVPMTYTDAAGNTFTKTFVLKRGDYAVNVNYNVQNAGEKPLEISSFGQLKQSITLPPHLDTGSSNFALHTFRGAAYSTPDEKYEKYKFDTIADNENLNISSKGGWVAMLQQYFATAWIPHNDGTNNFYTANLGNGIAAIGYKSQPVLVQPGQTGAMNSTLWVGPEIQDKMAAVAPHLDLTVDYGWLWFISQPLFKLLKWIHSFVGNWGFSIIIITFIVRGIMYPLTKAQYTSMAKMRMLQPKIQAMRERLGDDKQRISQEMMALYKAEKVNPLGGCFPLLIQMPIFLALYYMLMGSVELRQAPFALWIHDLSAQDPYYILPILMGVTMFFIQKMSPTTVTDPMQQKIMTFMPVIFTVFFLWFPSGLVLYYIVSNLVTIIQQQLIYRGLEKRGLHSREKKKS [F17C], the “effect of a mutation on the interaction” value was “increasing interaction”.

The variants in the next experiment derive from B2. Conditions: with capsd_bppf3 VIII. This is another data set of the same source.
MDSQRNLLVIALLFVSFMIWQAWEQDKNPQPQAQQTTQTTTTAAGSAADQGVPASGQGKLISVKTDVLDLTINTRGGDVEQALLPAYPKELNSTQPFQLLETSPQFIYQAQSGLTGRDGPDNPANGPRPLYNVEKDAYVLAEGQNELQVPMTYTDAAGNTFTKTFVLKRGDYAVNVNYNVQNAGEKPLEISSFGQLKQSITLPPHLDTGSSNFALHTFRGAAYSTPDEKYEKYKFDTIADNENLNISSKGGWVAMLQQYFATAWIPHNDGTNNFYTANLGNGIAAIGYKSQPVLVQPGQTGAMNSTLWVGPEIQDKMAAVAPHLDLTVDYGWLWFISQPLFKLLKWIHSFVGNWGFSIIIITFIVRGIMYPLTKAQYTSMAKMRMLQPKIQAMRERLGDDKQRISQEMMALYKAEKVNPLGGCFPLLIQCPIFLALYYMLMGSVELRQAPFALWIHDLSAQDPYYILPILMGVTMFFIQKMSPTTVTDPMQQKIMTFMPVIFTVFFLWFPSGLVLYYIVSNLVTIIQQQLIYRGLEKRGLHSREKKKS [M430C]: the “effect of a mutation on the interaction” value is recorded as “increasing interaction”.

In another experiment the parent is B2. Conditions: with capsd_bppf3 VIII, P03623.
MDSQRNLLVIALLFVCFMIWQAWEQDKNPQPQAQQTTQTTTTAAGSAADQGVPASGQGKLISVKTDVLDLTINTRGGDVEQALLPAYPKELNSTQPFQLLETSPQFIYQAQSGLTGRDGPDNPANGPRPLYNVEKDAYVLAEGQNELQVPMTYTDAAGNTFTKTFVLKRGDYAVNVNYNVQNAGEKPLEISSFGQLKQSITLPPHLDTGSSNFALHTFRGAAYSTPDEKYEKYKFDTIADNENLNISSKGGWVAMLQQYFATAWIPHNDGTNNFYTANLGNGIAAIGYKSQPVLVQPGQTGAMNSTLWVGPEIQDKMAAVAPHLDLTVDYGWLWFISQPLFKLLKWIHSFVGNWGFSIIIITFIVRGIMYPLTKAQYTSMAKMRMLQPKIQAMRERLGDDKQRISQEMMALYKAEKVNPLGGCFPLLIQMPIFLALYYMLMGSVELRQAPFALWIHDLSAQDPYYILPILMGVTMFFIQKMSPTTVTDPMQQKIMTFMPVIFTVFFLWFPSGLVLYYIVSNLVTIIQQQLIYRGLEKRGLHSREKKKS [S16C]: the “effect of a mutation on the interaction” value was “increasing interaction”.
